# Paper doi:10.1101/2025.10.16.681758 (bioRxiv, 2025)
# B1: SiRe_0131 (natural protein, Saccharolobus islandicus REY15A, UniProt F0NG80 1-74, looked up)
# chain: MEKIVKVNDTTYILEDERSVVITFKLEENILSMVDEIVKKLGYDYRSDFIRDAIEKYINYLKSSSNNSKMNINE
# B2: aCcr2 (natural protein, Saccharolobus islandicus REY15A, UniProt F0NEU4 1-57, looked up)
# chain: MVRVITFKAEEELLVKLDLFALNSRMSRSEIIRMAIEKYLEEAAGGIRTRDRRLSRQ
# B3: aCcr1 (natural protein, Saccharolobus islandicus REY15A, UniProt F0NBE5 1-58, looked up)
# chain: MRVVTFKVEEDLLELLDRYAIKYGLNRSEAIRKAIEKMVRDELSKERVPVARVEKIKL
# What was measured:
# [1] = test system: aCcr1 (Saccharolobus islandicus REY15A); assay: EMSA
# [2] = test system: aCcr2 (Saccharolobus islandicus REY15A); assay: EMSA
# [3] = test system: aCcr3 (Saccharolobus islandicus REY15A); assay: EMSA
# [4] = molecular target: the molecule itself; assay: SEC
Molecule,stoichiometry N [4],further results
PcdvA,,Kd [1]: 0.0935 µM; Kd [2]: 0.245 µM; Kd [3]: 0.036 µM
B1,2,
B2,2,
"MRKVVSVRLKEDVLRDVDIYTRKLGLNSRTEFIKQAIEFYIKSKS (natural protein, Saccharolobus islandicus REY15A, UniProt F0NI75 1-45, looked up) [SiRe_1373]",2,
B3,2,
"MKIITVKLPEQFLEAIDELVNTGRYGSRSEVIRAAIGDFIRKELWVTTEE (natural protein, Saccharolobus islandicus REY15A, UniProt F0NFD7 1-50, looked up) [aCcr3]",2,
